Where no end group is shown, it is not given here.
Key:
Assay in all cases: cell-based or functional assay
[1] = biological target: T1, TRHR (UniProt P34981 1-398)
T1 sequence (looked up): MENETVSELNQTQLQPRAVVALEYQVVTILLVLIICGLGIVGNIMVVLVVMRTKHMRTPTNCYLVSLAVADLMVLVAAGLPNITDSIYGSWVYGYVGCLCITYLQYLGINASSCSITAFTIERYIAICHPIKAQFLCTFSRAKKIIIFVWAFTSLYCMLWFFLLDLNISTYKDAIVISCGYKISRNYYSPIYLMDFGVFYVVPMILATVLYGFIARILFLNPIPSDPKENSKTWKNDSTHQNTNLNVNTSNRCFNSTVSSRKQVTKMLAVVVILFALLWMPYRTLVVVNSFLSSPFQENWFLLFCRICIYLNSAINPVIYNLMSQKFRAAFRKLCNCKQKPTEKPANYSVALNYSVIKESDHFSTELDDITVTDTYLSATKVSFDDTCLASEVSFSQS

[2] = biological target: GPR92 (UniProt Q9H1C0 1-372)
[3] = biological target: T2, C3AR1 (UniProt Q16581 1-482)
T2 sequence (looked up): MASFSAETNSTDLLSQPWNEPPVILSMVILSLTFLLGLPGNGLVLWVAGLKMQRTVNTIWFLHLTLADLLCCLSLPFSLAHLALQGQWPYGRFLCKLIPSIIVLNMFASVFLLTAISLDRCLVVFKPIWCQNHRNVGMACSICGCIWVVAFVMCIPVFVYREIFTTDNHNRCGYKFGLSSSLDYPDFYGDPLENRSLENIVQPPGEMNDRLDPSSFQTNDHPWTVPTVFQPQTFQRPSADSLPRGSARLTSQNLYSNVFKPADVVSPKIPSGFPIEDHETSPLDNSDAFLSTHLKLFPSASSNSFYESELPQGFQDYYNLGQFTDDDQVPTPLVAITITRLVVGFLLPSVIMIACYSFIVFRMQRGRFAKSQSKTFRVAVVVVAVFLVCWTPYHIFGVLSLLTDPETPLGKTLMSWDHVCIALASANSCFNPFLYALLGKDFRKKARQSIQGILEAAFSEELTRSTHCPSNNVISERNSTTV

[4] = biological target: MC4R (UniProt P32245 1-332)
[5] = biological target: T3, CHRM1 (UniProt P11229 1-460)
T3 sequence (looked up): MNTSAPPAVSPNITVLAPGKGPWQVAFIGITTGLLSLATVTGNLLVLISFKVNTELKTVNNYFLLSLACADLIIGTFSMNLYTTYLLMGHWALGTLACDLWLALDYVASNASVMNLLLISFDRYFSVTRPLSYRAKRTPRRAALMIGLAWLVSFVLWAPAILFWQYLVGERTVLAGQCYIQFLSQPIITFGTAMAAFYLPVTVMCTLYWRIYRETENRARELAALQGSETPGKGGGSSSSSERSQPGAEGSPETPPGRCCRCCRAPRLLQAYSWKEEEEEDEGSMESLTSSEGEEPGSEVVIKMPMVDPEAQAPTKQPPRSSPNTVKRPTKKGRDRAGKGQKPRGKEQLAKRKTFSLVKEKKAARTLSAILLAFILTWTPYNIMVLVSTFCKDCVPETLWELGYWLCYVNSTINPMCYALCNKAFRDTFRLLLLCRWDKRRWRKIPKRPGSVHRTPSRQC

[6] = biological target: PTGIR (UniProt P43119 1-386, limits assumed)
[7] = biological target: GPR109A (UniProt Q8TDS4 1-363)
[8] = biological target: GHSR (UniProt Q92847 1-366)
[9] = biological target: CCR5 (UniProt P51681 1-352)
[10] = biological target: MTNR1A (UniProt P48039 1-350)
[11] = biological target: T4, PRLHR (UniProt P49683 1-370)
T4 sequence (looked up): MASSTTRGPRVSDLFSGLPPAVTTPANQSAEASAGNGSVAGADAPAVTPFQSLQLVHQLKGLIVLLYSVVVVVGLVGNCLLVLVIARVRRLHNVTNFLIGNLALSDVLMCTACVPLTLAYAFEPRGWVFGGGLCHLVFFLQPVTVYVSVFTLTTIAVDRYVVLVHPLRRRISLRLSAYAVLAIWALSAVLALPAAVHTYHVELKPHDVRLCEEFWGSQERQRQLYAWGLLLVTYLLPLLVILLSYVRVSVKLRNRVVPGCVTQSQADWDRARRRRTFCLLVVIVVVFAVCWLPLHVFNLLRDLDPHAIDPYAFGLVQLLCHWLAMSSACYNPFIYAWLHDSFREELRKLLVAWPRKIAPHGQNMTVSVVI

[12] = biological target: NTSR1 (UniProt P30989 1-418)
[13] = biological target: CNR2 (UniProt P34972 1-360)
[14] = biological target: T5, GALR2 (UniProt O43603 1-387)
T5 sequence (looked up): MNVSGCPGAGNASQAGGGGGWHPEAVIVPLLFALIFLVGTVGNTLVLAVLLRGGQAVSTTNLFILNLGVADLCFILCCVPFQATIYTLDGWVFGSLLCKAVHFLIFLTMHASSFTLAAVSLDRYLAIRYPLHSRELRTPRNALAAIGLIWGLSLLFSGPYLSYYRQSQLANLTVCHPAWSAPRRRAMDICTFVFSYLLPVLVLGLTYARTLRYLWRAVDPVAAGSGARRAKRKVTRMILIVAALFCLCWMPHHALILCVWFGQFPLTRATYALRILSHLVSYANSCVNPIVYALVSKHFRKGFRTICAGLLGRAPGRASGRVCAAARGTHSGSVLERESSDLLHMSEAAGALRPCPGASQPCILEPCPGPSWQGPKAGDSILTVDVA

[15] = biological target: ADRB2 (UniProt P07550 1-413)
[16] = biological target: CALCRL-RAMP1 (UniProt Q16602 23-461; O60894 27-148)
Sequence of CALCRL-RAMP1 (Q16602 23-461 limits assumed, chain 1 of 2): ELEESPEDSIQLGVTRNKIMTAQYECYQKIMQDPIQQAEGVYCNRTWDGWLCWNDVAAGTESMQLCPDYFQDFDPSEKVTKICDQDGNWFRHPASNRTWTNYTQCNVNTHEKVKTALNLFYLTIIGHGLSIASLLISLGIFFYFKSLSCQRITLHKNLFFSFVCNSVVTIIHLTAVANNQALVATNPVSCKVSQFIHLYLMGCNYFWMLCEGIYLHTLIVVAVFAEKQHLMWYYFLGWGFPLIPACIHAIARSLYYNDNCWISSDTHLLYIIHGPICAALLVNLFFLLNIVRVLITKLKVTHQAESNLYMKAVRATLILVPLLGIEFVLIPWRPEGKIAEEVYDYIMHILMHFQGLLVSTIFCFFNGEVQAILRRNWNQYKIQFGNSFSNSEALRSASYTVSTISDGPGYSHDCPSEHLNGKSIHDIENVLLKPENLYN
Sequence of CALCRL-RAMP1 (O60894 27-148 limits assumed, chain 2 of 2): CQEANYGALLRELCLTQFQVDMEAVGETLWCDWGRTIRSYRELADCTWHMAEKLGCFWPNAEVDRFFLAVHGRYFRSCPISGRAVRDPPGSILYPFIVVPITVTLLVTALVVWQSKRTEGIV

Sequence of PTGIR (P43119 whole entry): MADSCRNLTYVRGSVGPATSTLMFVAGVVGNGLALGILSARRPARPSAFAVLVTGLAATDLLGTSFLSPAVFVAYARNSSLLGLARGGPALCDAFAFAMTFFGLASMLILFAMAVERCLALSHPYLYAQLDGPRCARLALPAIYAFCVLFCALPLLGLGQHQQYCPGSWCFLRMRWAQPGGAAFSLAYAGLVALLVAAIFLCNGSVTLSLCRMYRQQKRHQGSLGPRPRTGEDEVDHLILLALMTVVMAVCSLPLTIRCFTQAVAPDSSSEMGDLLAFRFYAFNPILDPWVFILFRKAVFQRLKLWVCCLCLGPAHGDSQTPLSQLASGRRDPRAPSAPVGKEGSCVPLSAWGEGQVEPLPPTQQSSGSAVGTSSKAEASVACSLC
Sequence of CCR5 (P51681 whole entry): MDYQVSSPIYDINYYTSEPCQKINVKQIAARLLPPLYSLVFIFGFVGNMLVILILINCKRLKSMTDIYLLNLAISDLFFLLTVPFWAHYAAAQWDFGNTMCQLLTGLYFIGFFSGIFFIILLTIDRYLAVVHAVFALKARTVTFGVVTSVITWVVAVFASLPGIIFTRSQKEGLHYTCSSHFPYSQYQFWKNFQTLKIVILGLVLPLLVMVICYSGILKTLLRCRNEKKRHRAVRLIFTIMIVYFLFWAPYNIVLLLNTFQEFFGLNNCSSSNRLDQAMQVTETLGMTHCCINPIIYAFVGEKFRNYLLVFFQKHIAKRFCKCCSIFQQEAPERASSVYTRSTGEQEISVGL
Sequence of GPR92 (Q9H1C0 whole entry): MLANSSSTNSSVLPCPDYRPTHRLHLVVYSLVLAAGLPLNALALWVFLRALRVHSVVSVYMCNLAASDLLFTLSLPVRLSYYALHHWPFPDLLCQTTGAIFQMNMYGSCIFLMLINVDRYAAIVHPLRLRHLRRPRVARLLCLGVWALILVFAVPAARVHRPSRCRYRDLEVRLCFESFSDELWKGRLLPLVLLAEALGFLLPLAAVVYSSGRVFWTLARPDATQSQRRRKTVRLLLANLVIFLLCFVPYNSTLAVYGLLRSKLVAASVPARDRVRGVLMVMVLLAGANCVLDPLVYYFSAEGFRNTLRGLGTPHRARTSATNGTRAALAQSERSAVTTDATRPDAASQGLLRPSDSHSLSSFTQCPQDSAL
Sequence of CNR2 (P34972 whole entry): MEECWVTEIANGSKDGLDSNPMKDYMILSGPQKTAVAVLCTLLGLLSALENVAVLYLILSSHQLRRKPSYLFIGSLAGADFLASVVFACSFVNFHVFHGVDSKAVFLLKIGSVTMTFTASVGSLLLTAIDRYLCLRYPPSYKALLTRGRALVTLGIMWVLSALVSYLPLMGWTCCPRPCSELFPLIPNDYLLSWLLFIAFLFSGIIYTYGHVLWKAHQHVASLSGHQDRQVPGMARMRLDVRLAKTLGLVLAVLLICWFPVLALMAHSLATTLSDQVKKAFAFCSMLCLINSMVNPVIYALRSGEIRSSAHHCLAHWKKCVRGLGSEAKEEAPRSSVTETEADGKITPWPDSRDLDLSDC
Sequence of MC4R (P32245 whole entry): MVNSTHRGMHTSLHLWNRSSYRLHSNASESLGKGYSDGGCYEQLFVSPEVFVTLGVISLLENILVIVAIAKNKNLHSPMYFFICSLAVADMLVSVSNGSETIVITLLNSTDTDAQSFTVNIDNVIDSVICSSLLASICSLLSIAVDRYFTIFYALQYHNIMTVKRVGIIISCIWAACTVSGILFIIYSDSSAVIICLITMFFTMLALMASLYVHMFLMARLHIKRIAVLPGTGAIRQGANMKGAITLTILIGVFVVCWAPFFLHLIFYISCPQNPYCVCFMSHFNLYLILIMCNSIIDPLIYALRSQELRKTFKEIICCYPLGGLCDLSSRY
Sequence of GHSR (Q92847 whole entry): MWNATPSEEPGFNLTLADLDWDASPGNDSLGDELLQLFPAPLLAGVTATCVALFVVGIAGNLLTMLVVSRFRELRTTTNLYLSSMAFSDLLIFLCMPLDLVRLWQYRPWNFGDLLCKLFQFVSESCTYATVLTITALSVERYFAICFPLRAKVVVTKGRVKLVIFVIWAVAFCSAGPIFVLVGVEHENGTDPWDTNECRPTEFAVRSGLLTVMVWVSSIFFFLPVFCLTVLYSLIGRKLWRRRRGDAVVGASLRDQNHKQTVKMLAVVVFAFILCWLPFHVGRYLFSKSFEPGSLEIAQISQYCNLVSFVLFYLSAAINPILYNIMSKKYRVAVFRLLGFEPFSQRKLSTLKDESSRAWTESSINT
Sequence of NTSR1 (P30989 whole entry): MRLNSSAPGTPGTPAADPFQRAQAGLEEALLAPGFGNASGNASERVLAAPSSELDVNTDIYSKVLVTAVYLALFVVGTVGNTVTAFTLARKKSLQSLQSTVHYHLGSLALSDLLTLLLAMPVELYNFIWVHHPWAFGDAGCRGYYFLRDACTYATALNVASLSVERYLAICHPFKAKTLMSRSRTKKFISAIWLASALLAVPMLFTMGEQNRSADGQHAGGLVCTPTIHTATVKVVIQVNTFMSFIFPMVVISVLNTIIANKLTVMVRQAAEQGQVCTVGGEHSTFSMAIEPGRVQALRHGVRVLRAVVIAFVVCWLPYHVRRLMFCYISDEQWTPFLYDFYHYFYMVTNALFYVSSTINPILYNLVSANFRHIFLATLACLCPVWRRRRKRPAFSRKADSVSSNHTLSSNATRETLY
Sequence of MTNR1A (P48039 whole entry): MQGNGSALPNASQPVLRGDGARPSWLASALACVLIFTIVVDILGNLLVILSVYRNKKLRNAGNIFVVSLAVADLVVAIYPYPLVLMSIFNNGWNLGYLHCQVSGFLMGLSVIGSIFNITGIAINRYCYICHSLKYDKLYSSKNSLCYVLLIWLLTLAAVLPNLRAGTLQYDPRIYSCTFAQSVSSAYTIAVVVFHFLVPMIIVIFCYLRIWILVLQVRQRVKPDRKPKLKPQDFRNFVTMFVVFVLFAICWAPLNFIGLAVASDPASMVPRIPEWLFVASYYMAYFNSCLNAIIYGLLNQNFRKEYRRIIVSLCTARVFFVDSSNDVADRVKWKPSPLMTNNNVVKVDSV
Sequence of GPR109A (Q8TDS4 whole entry): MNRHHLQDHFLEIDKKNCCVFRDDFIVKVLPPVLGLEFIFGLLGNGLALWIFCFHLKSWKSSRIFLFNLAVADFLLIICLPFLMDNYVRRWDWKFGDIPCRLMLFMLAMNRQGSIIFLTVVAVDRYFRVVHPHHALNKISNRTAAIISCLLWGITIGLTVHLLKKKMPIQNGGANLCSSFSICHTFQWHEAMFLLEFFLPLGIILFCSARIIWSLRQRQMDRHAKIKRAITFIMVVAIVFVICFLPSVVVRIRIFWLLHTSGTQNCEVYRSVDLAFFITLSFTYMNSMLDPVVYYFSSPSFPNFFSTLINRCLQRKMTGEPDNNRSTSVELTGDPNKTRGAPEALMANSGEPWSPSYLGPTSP

QATVGDVNTDRPGLLDLK (also: synthesised on Rink amide resin, C-terminal amide not given here outright) [octadecaneuropeptide (ODN)]
% Activity, arrestin, antagonist mode, 2.5 uM [1]: -6.6% | % Activity, arrestin, antagonist mode, 2.5 uM [2]: 10.6% | % Activity, arrestin, antagonist mode, 2.5 uM [3]: 4% | % Activity, arrestin, antagonist mode, 2.5 uM [4]: -4.6% | % Activity, arrestin, antagonist mode, 2.5 uM [5]: 9.3% | % Activity, arrestin, antagonist mode, 2.5 uM [6]: -20% | % Activity, arrestin, antagonist mode, 2.5 uM [7]: -16% | % Activity, arrestin, antagonist mode, 2.5 uM [8]: -7.4% | % Activity, arrestin, antagonist mode, 2.5 uM [9]: -16.1% | % Activity, arrestin, antagonist mode, 2.5 uM [10]: 2.2% | % Activity, arrestin, antagonist mode, 2.5 uM [11]: -22.2% | % Activity, arrestin, antagonist mode, 2.5 uM [12]: -21.4% | % Activity, arrestin, antagonist mode, 2.5 uM [13]: 3.6% | % Activity, arrestin, antagonist mode, 2.5 uM [14]: -29.7% | % Activity, arrestin, antagonist mode, 2.5 uM [15]: -11.7% | % Activity, arrestin, antagonist mode, 2.5 uM [16]: -19%
